Assay results published in publication PMC7447978, “The ASC-1 Complex Disassembles Collided Ribosomes” (Molecular Cell, 2020).

B1: ASCC2 with a C-terminal FLAG tag (natural protein, human, UniProt Q9H1I8 1-757, looked up)
chain: MPALPLDQLQITHKDPKTGKLRTSPALHPEQKADRYFVLYKPPPKDNIPALVEEYLERATFVANDLDWLLALPHDKFWCQVIFDETLQKCLDSYLRYVPRKFDEGVASAPEVVDMQKRLHRSVFLTFLRMSTHKESKDHFISPSAFGEILYNNFLFDIPKILDLCVLFGKGNSPLLQKMIGNIFTQQPSYYSDLDETLPTILQVFSNILQHCGLQGDGANTTPQKLEERGRLTPSDMPLLELKDIVLYLCDTCTTLWAFLDIFPLACQTFQKHDFCYRLASFYEAAIPEMESAIKKRRLEDSKLLGDLWQRLSHSRKKLMEIFHIILNQICLLPILESSCDNIQGFIEEFLQIFSSLLQEKRFLRDYDALFPVAEDISLLQQASSVLDETRTAYILQAVESAWEGVDRRKATDAKDPSVIEEPNGEPNGVTVTAEAVSQASSHPENSEEEECMGAAAAVGPAMCGVELDSLISQVKDLLPDLGEGFILACLEYYHYDPEQVINNILEERLAPTLSQLDRNLDREMKPDPTPLLTSRHNVFQNDEFDVFSRDSVDLSRVHKGKSTRKEENTRSLLNDKRAVAAQRQRYEQYSVVVEEVPLQPGESLPYHSVYYEDEYDDTYDGNQVGANDADSDDELISRRPFTIPQVLRTKVPREGQEEDDDDEEDDADEEAPKPDHFVQDPAVLREKAEARRMAFLAKKGYRHDSSTAVAGSPRGHGQSRETTQERRKKEANKATRANHNRRTMADRKRSKGMIPS
notes: ASCC2, human, subunit of the ASC-1 complex (ASCC); Cloned with primers from the start codon to the last codons before the FLAG tag and stop; Plasmid pUCDM-ASCC2-FLAG-TRIP4; also called ASCC2-FLAG; source: Sf21 insect cells, baculovirus, co-expressed with the other ASCC subunits; purified (NiNTA, anti-FLAG M2, heparin Sepharose); not shown: FLAG, C-terminal, kept

Columns and labels:
[1] = target: T1, ASCC1 with a C-terminal 8-histidine tag (human, UniProt Q8N9N2-2 1-357); experiment: tandem affinity co-purification (NiNTA, anti-FLAG M2, heparin Sepharose); four subunits co-expressed in Sf21 insect cells; lysate bound to NiNTA through ASCC1-8His (washed at 300 mM NaCl), the eluate bound to anti-FLAG M2 resin through ASCC2-FLAG and eluted with FLAG peptide, then heparin Sepharose; elution fractions shown on a gel; 4°C, 20 mM Tris-HCl 8.0, 10% glycerol; details: partners not purified
T1 construct: ASCC1, human, subunit of the ASC-1 complex (ASCC); Plasmid pFL-ASCC1-8His-ASCC3, fused by Cre with pUCDM-ASCC2-FLAG-TRIP4; The isoform is inferred from the printed reverse primer; also called ASCC1-8His; source: Sf21 insect cells, baculovirus, co-expressed with the other ASCC subunits; purified (NiNTA, anti-FLAG M2, heparin Sepharose); not shown: His8, C-terminal, kept
T1 sequence (looked up): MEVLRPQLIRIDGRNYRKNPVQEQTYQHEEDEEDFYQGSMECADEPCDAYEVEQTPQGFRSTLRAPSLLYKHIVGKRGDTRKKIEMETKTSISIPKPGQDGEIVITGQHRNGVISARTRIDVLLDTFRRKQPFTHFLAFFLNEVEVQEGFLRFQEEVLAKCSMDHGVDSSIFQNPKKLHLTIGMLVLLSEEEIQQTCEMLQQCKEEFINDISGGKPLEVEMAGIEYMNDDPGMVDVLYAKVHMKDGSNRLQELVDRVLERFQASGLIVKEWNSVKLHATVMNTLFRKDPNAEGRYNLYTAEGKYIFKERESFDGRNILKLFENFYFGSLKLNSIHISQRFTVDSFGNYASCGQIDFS

[2] = target: B1; experiment: as above; details: partners not purified

Binder | stoichiometry N [1] | stoichiometry N [2]
ASC-1 (also known as TRIP4), untagged (natural protein, human, UniProt Q15650 1-581, looked up, ASC-1 (TRIP4), human, subunit of the ASC-1 complex (ASCC); Untagged, cloned with primers from the start codon to the stop codon; Plasmid pUCDM-ASCC2-FLAG-TRIP4; source: Sf21 insect cells, baculovirus, co-expressed with the other ASCC subunits; purified (NiNTA, anti-FLAG M2, heparin Sepharose)) MAVAGAVSGEPLVHWCTQQLRKTFGLDVSEEIIQYVLSIESAEEIREYVTDLLQGNEGKKGQFIEELITKWQKNDQELISDPLQQCFKKDEILDGQKSGDHLKRGRKKGRNRQEVPAFTEPDTTAEVKTPFDLAKAQENSNSVKKKTKFVNLYTREGQDRLAVLLPGRHPCDCLGQKHKLINNCLICGRIVCEQEGSGPCLFCGTLVCTHEEQDILQRDSNKSQKLLKKLMSGVENSGKVDISTKDLLPHQELRIKSGLEKAIKHKDKLLEFDRTSIRRTQVIDDESDYFASDSNQWLSKLERETLQKREEELRELRHASRLSKKVTIDFAGRKILEEENSLAEYHSRLDETIQAIANGTLNQPLTKLDRSSEEPLGVLVNPNMYQSPPQWVDHTGAASQKKAFRSSGFGLEFNSFQHQLRIQDQEFQEGFDGGWCLSVHQPWASLLVRGIKRVEGRSWYTPHRGRLWIAATAKKPSPQEVSELQATYRLLRGKDVEFPNDYPSGCLLGCVDLIDCLSQKQFKEQFPDISQESDSPFVFICKNPQEMVVKFPIKGNPKIWKLDSKIHQGAKKGLMKQNKAV | ~1 | ~1
B1 | ~1 | 
